According to patent publication US20230330253A1 (LANOVA MEDICINES, published 2023):
Residue numbers refer to the chain shown, from its start. In names and notes the source's numbering stands. One block for each binder: values may come before it.

Legend:
Assay in all cases: cell-based or functional assay
[1] = biological target: human claudin 18.2 (CLDN18.2) (human)
[2] = biological target: human claudin 18.2 (CLDN18.2) (human); remark: listed apart in the source
[3] = biological target: human claudin 18.2 (CLDN18.2) (human); remark: listed apart in the source

B2: 120B7B2 chimeric antibody (antibody, V domains shown)
VH: EVQLQQSGPELVKPGASVKMSCKASGYTFTGYIIQWMKQKPGLGLEWIGFINPYNDGTKYNEQFKGKATLTSDKSSNAAYMELSSLTSEDSAVYYCARAYFGNSFAYWGQGTLVTVSA
VL: DIVMTQSPSSLTVTAGEKVTMSCKSSQSLLNSGNQKNYLTWYQQRPGQPPKLLMYWASTRESGVPDRFTGSGSGTDFTLTISSGQAEDLAIYFCQNGYYFPFTFGSGTKLETK
EC50, ADCC Reporter Bioassay (luciferase, Jurkat FcγRIIIa V158/NFAT effector cells) [2]: 0.00581 nM

B3: 100F4G12 chimeric antibody (antibody, V domains shown)
VH: EVQLQQSGPELVKPGASVKMSCKASGYTFTGFLMHWVKQKPGQGLEWIGYINPYNDGTKYSERFKGKATLTSDKSSSTAYMELSSLTSDDSAVYYCARLDYGNAMDYWGQGTSVTVSS
VL: DIVMTQSPSSLTVTAGEKVTMRCKSTQSLLNSGNQRNYLTWYQQKPGQSPKLLIYWASTRESGVPERFTGSGSGTDFTLTISSVQAEDLAVYYCQNAYYYPLTFGPGTKLERK
Fluorescence, pHAb internalization on MKN45-CLDN18.2 cells, 20 nM antibody, normalized by DAR [1]: 17100
Fluorescence, pHAb internalization on MKN45-CLDN18.2 cells, 100 nM antibody, normalized by DAR [1]: 33500

B4: 78E8G9G6 chimeric antibody (antibody, V domains shown)
VH: QVQLKESGPGLVAPSQSLSITCTVSGFSLISYGVHWVRQPPGKGLEWLGVIWAGGRTNYNSALMSRLSISKDNSKSQVFLKMNSLQTYDTAMYYCARDRYGGNSLDYWGQGTSVTVSS
VL: DIVMTQSPSSLTVTAGEKVTMNCRSIQSLLNSGNQKNYLSWYQQKPGQPPKLLIYWASTRESGVPDRFTGSGSGTDFTLTIRSVLDEDLAVYYCQNSYSYPFTFGSGTKLEMK
Fluorescence, pHAb internalization on MKN45-CLDN18.2 cells, 20 nM antibody, normalized by DAR [1]: 26800
Fluorescence, pHAb internalization on MKN45-CLDN18.2 cells, 100 nM antibody, normalized by DAR [1]: 41100
EC50, ADCC Reporter Bioassay (luciferase, Jurkat FcγRIIIa V158/NFAT effector cells) [2]: 0.0159 nM

B5: 113E12F7 chimeric antibody (antibody, V domains shown)
VH: QVQLKESGPGLVAPSQSLSITCTVTGFSLSSYGVHWVRQPPGKGLEWLGVIWAGGSTNYDSALMSRLSISKDRSKSQVFLKMTSLQTDDTAMYYCARSLYGNSFDHWGQGTTLTVSS
VL: DIVMTQSPSSLTVTTGEKVTMSCKSSQSLFNSGNQKNYLTWYQQKPGQPPKLLIYWASTRESGVPDRFTGSGSGTYFTLTISSVQAEDLAVYYCQNNYIYPLAFGTGTKLELK
Fluorescence, pHAb internalization on MKN45-CLDN18.2 cells, 20 nM antibody, normalized by DAR [1]: 13200
Fluorescence, pHAb internalization on MKN45-CLDN18.2 cells, 100 nM antibody, normalized by DAR [1]: 29900

B7: 120B7B2 HC G57D&S104A-LC-N96E&N31E (humanized, PTM de-risked, No. 6) (antibody, V domains shown)
VH: QVQLVQSGAEVKKPGASVKVSCKASGYTFTGYIIQWVRQAPGQRLEWMGFINPYNDDTKYNEQFKGRVTITRDTSASTAYMELSSLRSEDTAVYYCARAYFGNAFAYWGQGTLVTVSS
VL: DIVMTQSPDSLAVSLGERATINCKSSQSLLESGNQKNYLTWYQQKPGQPPKLLIYWASTRESGVPDRFSGSGSGTDFTLTISSLQAEDVAVYYCQEGYYFPFTFGGGTKLEIK
EC50, ADCC Reporter Bioassay (luciferase) [3]: 0.493 nM

B8: 72C1B6A3 HC WT-LC N31E (humanized, PTM de-risked, No. 4) (antibody, V domains shown)
VH: QVQLVQSGAEVKKPGASVKVSCKASGYTFTTYPIEWVRQAPGQRLEWMGNFHPYNDDTKYNEKFKGRVTITRDTSASTAYMELSSLRSEDTAVYYCARRAYGYPYAMDYWGQGTLVTVSS
VL: B7 VL with W56R, T59S, E96N, G97D, Y99I, F100Y, F102Y
EC50, ADCC Reporter Bioassay (luciferase) [3]: 1.65 nM

B9: 120B7B2 HC G57D&S104A-LC S32A&G97A (BG2001-E) (humanized, PTM de-risked, No. 7) (antibody, V domains shown)
VH: B7 VH
VL: B7 VL with E31N, S32A, E96N, G97A
Fluorescence, pHAb internalization on MKN45-CLDN18.2 cells, 20 nM antibody, normalized by DAR [1]: 19200
Fluorescence, pHAb internalization on MKN45-CLDN18.2 cells, 100 nM antibody, normalized by DAR [1]: 31300
EC50, ADCC Reporter Bioassay (luciferase) [3]: 0.114 nM

B12: 72C1B6A3 HC WT-LC S32A (BG2001-D) (humanized, PTM de-risked, No. 5) (antibody, V domains shown)
VH: B8 VH
VL: B7 VL with E31N, S32A, W56R, T59S, E96N, G97D, Y99I, F100Y, F102Y
Fluorescence, pHAb internalization on MKN45-CLDN18.2 cells, 20 nM antibody, normalized by DAR [1]: 26200
Fluorescence, pHAb internalization on MKN45-CLDN18.2 cells, 100 nM antibody, normalized by DAR [1]: 36500
EC50, ADCC Reporter Bioassay (luciferase) [3]: 0.191 nM

B13: 4F11E2 chimeric antibody (antibody, V domains shown)
VH: DVQLVESGGGLVQPGGSRKLSCAASGFTFSTFGMHWVRQAPEKGLEWVAYITSGNSPIYFTDTVKGRFTISRDNPKNTLFLQMTSLGSEDTAVYYCARSSYYGNSMDYWGQGTSVTVSS
VL: DIVMTQSPSSLTVTAGEKVTLTCRSSQSLLNSGNRKNYLTWYQQIPGQPPKLLIYWASTRESGVPDRFTGSGSGTYFTLTISSVQAEDLAVYYCQNAYSYPFTFGSGTKLEKK
EC50, ADCC Reporter Bioassay (luciferase, Jurkat FcγRIIIa V158/NFAT effector cells) [2]: 0.0222 nM

B15: 103F6D3 chimeric antibody (antibody, V domains shown)
VH: QVQLQQSGAELARPGASVKMSCKASGYTFPTYSIHWLKQGPGQGLEWIGYINPNTIYTNYNQKFKYKTTLTADKSSSTAYIQLSSLTSDDSAVYYCAREGYGRGNAMDYWGQGTSVTVSS
VL: B13 VL with L11Q, T22S, S32G, R35Q, I45K, L79F, S99F, S106A, K112L
Fluorescence, pHAb internalization on MKN45-CLDN18.2 cells, 20 nM antibody, normalized by DAR [1]: 23000
Fluorescence, pHAb internalization on MKN45-CLDN18.2 cells, 100 nM antibody, normalized by DAR [1]: 41300
EC50, ADCC Reporter Bioassay (luciferase, Jurkat FcγRIIIa V158/NFAT effector cells) [2]: 0.0795 nM

B18: 103H2B4 chimeric antibody (antibody, V domains shown)
VH: QVQLQQPGAEPVKPGASVKLSCKASGYSFTNFLTHWVRQRPGQGLEWIGEINPTNGRTYYNEKFKRKATLTVDKSSTTVYMQLSNLTPEDSAVFYCARIYYGNSMDYWGQGTLVTVSA
VL: B5 VL with V3L, T15A, F30L, P49S, Y76D, I99F, A103T, T106V
Fluorescence, pHAb internalization on MKN45-CLDN18.2 cells, 20 nM antibody, normalized by DAR [1]: 23500
Fluorescence, pHAb internalization on MKN45-CLDN18.2 cells, 100 nM antibody, normalized by DAR [1]: 35800

B19: 111B12D11 chimeric antibody (antibody, V domains shown)
VH: B5 VH with T25S, S30T, A62T
VL: B5 VL with T15A, S22R, K24R, K36R, Y76D, T106A
Fluorescence, pHAb internalization on MKN45-CLDN18.2 cells, 20 nM antibody, normalized by DAR [1]: 15900
Fluorescence, pHAb internalization on MKN45-CLDN18.2 cells, 100 nM antibody, normalized by DAR [1]: 37400

B20: 111E7E2 chimeric antibody (antibody, V domains shown)
VH: B5 VH with T25S, S30T, V34A
VL: B5 VL with T15A, Y76D, T106A
Fluorescence, pHAb internalization on MKN45-CLDN18.2 cells, 20 nM antibody, normalized by DAR [1]: 12300
Fluorescence, pHAb internalization on MKN45-CLDN18.2 cells, 100 nM antibody, normalized by DAR [1]: 28000

The remaining lines, values ahead:

Fluorescence, pHAb internalization on MKN45-CLDN18.2 cells, 20 nM antibody, normalized by DAR [1]: 29500
Fluorescence, pHAb internalization on MKN45-CLDN18.2 cells, 100 nM antibody, normalized by DAR [1]: 43900
EC50, ADCC Reporter Bioassay (luciferase, Jurkat FcγRIIIa V158/NFAT effector cells) [2]: 0.0368 nM
B1: 12F1F4 chimeric antibody (antibody, V domains shown)
VH: QVQLKESGPGLVAPSQSLSITCTVSGFSLINYGVSWVRQPPGKGLEWLGVIWGDGNTNYQSALRSRLSIRKDTSKSQVFLKLNSVHTDGTATYYCAKVGRGNAMDHWGQGISVIVSS
VL: DIVMTQSPSSLTVTARERVSMTCKSSQSLFNSGNQRNYLTWYQQKPGQPPKLLIYWSSTRESGVPDRFTGSGSGTDFTLTISSVQAEDLAIYFCQNNYYYPFTFGSGTKLEIK

EC50, ADCC Reporter Bioassay (luciferase) [3]: 0.414 nM
B6: 4F11E2 HC N55Q-LC S32A (humanized, PTM de-risked, No. 2) (antibody, V domains shown)
VH: EVQLVESGGGLVQPGGSLRLSCAASGFTFSTFGMHWVRQAPGKGLEWVSYITSGQSPIYFTDTVKGRFTISRDNAKNSLYLQMNSLRAEDTAVYYCARSSYYGNSMDYWGQGTLVTVSS
VL: B7 VL with K24R, E31N, S32A, Q35R, E96N, G97A, Y99S, F100Y

Fluorescence, pHAb internalization on MKN45-CLDN18.2 cells, 20 nM antibody, normalized by DAR [1]: 19000
Fluorescence, pHAb internalization on MKN45-CLDN18.2 cells, 100 nM antibody, normalized by DAR [1]: 28200
EC50, ADCC Reporter Bioassay (luciferase) [3]: 0.148 nM
B10: 4F11E2 HC N55E-LC S32A (BG2001-C) (humanized, PTM de-risked, No. 3) (antibody, V domains shown)
VH: B6 VH with Q55E
VL: B7 VL with K24R, E31N, S32A, Q35R, E96N, G97A, Y99S, F100Y

EC50, ADCC Reporter Bioassay (luciferase) [3]: 0.238 nM
B11: 4F11E2 HC N55Q-LC N31E (humanized, PTM de-risked, No. 1) (antibody, V domains shown)
VH: B6 VH
VL: B7 VL with K24R, Q35R, E96N, G97A, Y99S, F100Y

Fluorescence, pHAb internalization on MKN45-CLDN18.2 cells, 20 nM antibody, normalized by DAR [1]: 7950
Fluorescence, pHAb internalization on MKN45-CLDN18.2 cells, 100 nM antibody, normalized by DAR [1]: 18900
EC50, ADCC Reporter Bioassay (luciferase, Jurkat FcγRIIIa V158/NFAT effector cells) [2]: 0.459 nM
EC50, ADCC Reporter Bioassay (luciferase) [3]: 0.158 nM
B14: 175D10 (IMAB362; claudiximab) (antibody, V domains shown)
VH: QVQLQQPGAELVRPGASVKLSCKASGYTFTSYWINWVKQRPGQGLEWIGNIYPSDSYTNYNQKFKDKATLTVDKSSSTAYMQLSSPTSEDSAVYYCTRSWRGNSFDYWGQGTTLTVSS
VL: B13 VL with L21M, T22S, R24K, R35Q, I45K, Y76D, A97D, K112I

EC50, ADCC Reporter Bioassay (luciferase, Jurkat FcγRIIIa V158/NFAT effector cells) [2]: 0.0463 nM
B16: 72C1B6A3 chimeric antibody (antibody, V domains shown)
VH: QVQLQQSGGELVKPGASVKMSCKAFGYTFTTYPIEWMKQNHGKSLEWIGNFHPYNDDTKYNEKFKGKAKLTVEKSSSTVYLEVSRLTSDDSAVYYCARRAYGYPYAMDYWGQGTSVTVSS
VL: DIVMTQSPSSLTVTAGEKVTMSCKSSQSLLNSGNQKNYLTWYQQRPGQPPKLLIYRASSRESGVPVRFTGSGSGTDFTLTISSVQAEDLAVYYCQNDYIYPYTFGGGTKLEMN

Fluorescence, pHAb internalization on MKN45-CLDN18.2 cells, 20 nM antibody, normalized by DAR [1]: 24000
Fluorescence, pHAb internalization on MKN45-CLDN18.2 cells, 100 nM antibody, normalized by DAR [1]: 33700
EC50, ADCC Reporter Bioassay (luciferase, Jurkat FcγRIIIa V158/NFAT effector cells) [2]: 0.126 nM
B17: 64G11B4 chimeric antibody (antibody, V domains shown)
VH: QVQLHQSGTELVRPGTSVKVSCKASGYAFTNYLLEWVKQRPGQGLEWIGEINPGNGGSNYNEKFKGKATLTADKSSSTAYMQLSSLTSVDSAVYFCARIYYGNSFAYWGQGTLVTVSA
VL: DIVMTQSPSSLTVTAGEKVTMNCKSSQSLLNSGNQRNYLTWYQQKPGQPPKLLIYWASTRESGVPDRFTGSGSGTDFTLTISSVQADDLAVYYCQNDYFYPFTFGAGTNLELK
